Assays:
[1] = biological target: T1, cMet-Fc fusion protein (extracellular domain of the cMet receptor expressed as an Fc-fusion protein) (human, UniProt P08581 25-932); test: phage ELISA, cMet-Fc vs TRAIL-Fc
T1 construct: extracellular domain; also called soluble cMet-Fc-fusion protein; soluble cMet receptor; not shown: Fc part
How it was run: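 Plates coated overnight at 4 C with 0.5 μg/mL cMet-Fc, or TRAIL-Fc as background, were blocked with 3% BSA in PBST. Peptide-displaying phage were bound 2 h at room temperature. Bound phage were detected with HRP-conjugated anti-M13 antibody.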

[2] = biological target: T2, human cMet expressed on 3T3 cells (human, UniProt P08581 25-1390); test: whole cell phage ELISA, 3T3 human cMet vs 3T3
T2 construct: whole, on cells; cells fixed with glutaraldehyde; also called cell surface-expressed human cMet; 3T3 cells that over-express human cMet
How it was run: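 3T3 cells over-expressing human cMet, compared against parental 3T3, seeded at 10⁵ per well and fixed with 0.1% glutaraldehyde for 12 min at 37 C. Blocked peptide-displaying phage bound for 1 h at room temperature. After PBST washes, bound phage was detected with HRP-conjugated anti-M13 antibody.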

[3] = biological target: T1, cMet-Fc fusion protein (extracellular …); test: phage ELISA on cMet-Fc, competitor HGF 100 ng/mL
How it was run: (§1)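 Plates coated with 0.5 μg/mL cMet-Fc, with TRAIL-Fc as background, then blocked with 3% BSA. Bound phage detected with HRP anti-M13 antibody.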

[4] = biological target: T1, cMet-Fc fusion protein (extracellular …); test: phage ELISA on cMet-Fc, competitor HGF 500 ng/mL
How it was run: as §1

T2 sequence (P08581 25-1390): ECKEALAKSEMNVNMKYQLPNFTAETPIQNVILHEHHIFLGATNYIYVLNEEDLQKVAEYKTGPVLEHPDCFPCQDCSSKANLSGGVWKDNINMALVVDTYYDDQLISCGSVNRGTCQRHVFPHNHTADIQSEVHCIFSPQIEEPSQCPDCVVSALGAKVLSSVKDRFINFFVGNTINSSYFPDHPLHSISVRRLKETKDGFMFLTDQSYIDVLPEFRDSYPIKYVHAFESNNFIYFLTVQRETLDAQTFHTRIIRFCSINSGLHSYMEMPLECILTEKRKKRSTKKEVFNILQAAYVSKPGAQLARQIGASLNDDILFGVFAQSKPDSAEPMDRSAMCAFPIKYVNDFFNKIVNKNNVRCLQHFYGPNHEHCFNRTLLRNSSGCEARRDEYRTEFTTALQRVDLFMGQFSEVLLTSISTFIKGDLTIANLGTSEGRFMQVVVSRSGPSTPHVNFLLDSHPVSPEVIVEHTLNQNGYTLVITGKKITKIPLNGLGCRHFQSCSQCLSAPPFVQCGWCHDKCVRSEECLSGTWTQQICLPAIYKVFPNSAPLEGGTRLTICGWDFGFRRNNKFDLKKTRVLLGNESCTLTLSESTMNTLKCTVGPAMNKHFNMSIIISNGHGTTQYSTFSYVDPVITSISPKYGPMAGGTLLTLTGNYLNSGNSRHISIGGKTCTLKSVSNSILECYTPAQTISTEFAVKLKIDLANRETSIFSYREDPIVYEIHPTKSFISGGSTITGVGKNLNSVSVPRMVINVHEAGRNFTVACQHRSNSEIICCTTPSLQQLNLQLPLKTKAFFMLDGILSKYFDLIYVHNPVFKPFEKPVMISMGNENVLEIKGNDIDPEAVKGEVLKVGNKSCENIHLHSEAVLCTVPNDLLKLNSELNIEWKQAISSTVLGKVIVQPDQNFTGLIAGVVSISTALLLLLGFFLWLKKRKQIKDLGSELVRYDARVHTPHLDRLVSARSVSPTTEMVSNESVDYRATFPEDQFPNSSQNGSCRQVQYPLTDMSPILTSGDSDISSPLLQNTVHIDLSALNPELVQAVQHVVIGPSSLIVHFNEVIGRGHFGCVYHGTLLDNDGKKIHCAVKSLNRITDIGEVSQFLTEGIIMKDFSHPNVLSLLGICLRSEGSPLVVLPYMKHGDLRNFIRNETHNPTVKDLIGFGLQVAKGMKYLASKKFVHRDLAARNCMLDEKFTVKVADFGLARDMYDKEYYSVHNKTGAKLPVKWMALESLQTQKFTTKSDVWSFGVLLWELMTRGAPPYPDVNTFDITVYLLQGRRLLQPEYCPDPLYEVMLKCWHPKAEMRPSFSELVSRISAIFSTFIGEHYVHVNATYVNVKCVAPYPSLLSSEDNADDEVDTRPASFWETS
T1 sequence (P08581 25-932): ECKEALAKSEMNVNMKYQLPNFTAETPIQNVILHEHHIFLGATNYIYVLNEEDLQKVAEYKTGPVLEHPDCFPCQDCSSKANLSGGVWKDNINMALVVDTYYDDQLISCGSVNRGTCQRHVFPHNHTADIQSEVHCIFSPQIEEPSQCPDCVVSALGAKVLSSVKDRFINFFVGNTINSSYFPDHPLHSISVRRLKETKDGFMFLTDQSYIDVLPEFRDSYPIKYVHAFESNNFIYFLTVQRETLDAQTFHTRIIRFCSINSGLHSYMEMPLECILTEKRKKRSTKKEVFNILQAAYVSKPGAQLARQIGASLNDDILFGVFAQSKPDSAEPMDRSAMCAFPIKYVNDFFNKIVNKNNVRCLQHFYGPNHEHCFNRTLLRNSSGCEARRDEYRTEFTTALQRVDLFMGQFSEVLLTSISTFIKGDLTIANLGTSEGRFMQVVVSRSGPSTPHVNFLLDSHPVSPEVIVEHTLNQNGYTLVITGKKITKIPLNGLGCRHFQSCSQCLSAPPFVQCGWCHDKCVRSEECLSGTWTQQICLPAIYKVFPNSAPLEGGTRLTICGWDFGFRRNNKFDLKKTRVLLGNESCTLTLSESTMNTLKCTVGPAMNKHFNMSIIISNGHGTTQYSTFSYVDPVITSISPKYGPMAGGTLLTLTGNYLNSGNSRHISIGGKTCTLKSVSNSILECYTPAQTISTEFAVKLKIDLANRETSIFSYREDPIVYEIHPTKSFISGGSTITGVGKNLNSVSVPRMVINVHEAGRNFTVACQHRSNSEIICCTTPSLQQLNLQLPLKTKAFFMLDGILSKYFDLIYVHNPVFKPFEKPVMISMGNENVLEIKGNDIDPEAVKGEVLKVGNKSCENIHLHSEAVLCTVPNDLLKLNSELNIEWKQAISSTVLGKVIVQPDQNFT

Row | Binder | Protein ELISA (fold over background) [1] [fold] | WC ELISA (fold over background) [2] [fold] | % of binding in the absence of HGF [3] [%] | % of binding in the absence of HGF [4] [%]
1 | AQHMDPAEWDWFIRIYSPVVNP [149-E06 peptide-displaying phage (SEQ ID NO: 487)] | 3 | 1.8 | 80 | 86
2 | AQLFQYLWHDDPQGAFFQLSMW [98-F05 peptide-displaying phage (SEQ ID NO: 483)] | 3.1 | 1.23 | 88 | 57
3 | AQVGESLDDGWTFFSDKWFDFF [27-D10 peptide-displaying phage (SEQ ID NO: 485)] | 3 | 1.17 | 111 | 131
4 | AQVEDMATVHFKFNPATHEVIW [524-H02 peptide-displaying phage (SEQ ID NO: 492)] | 3.2 | 1.53 | 26 | 25
5 | AQGGRYPFYDTDWFKWEMYVL [527-A10 peptide-displaying phage (SEQ ID NO: 496)] | 3.8 | 1.3 | 84 | 78
6 | AQAEWVITSEEFYWKMADFGPP [75-B12 peptide-displaying phage (SEQ ID NO: 478)] | 3.4 | 1.23 | 95 | 108
7 | AQRDYLFYWNDGSYQPWQVFVG [523-A04 peptide-displaying phage (SEQ ID NO: 493)] | 5.5 | 1.3 | 133 | 143
8 | AQHVVTLTLIQMPFAFNFEPRM [118-B12 peptide-displaying phage (SEQ ID NO: 484)] | 3.1 | 1.3 | 98 | 112
9 | AGWFECEFGFWGCNWLGT [437-A09 peptide-displaying phage (SEQ ID NO: 018)] | 3.9 | 1.13 | 89 | 78
10 | AQGIAWQLEWSYMPQSPPSFDR [522-H03 peptide-displaying phage (SEQ ID NO: 495)] | 4.5 | 1.17 | 107 | 94
11 | AGVWICRVWDDECFFQGT [376-E05 peptide-displaying phage (SEQ ID NO: 020)] | 3.7 | 1.37 | 122 | 121
12 | AQWPHDGLVHWGEVIMLRF [117-F04 peptide-displaying phage (SEQ ID NO: 479)] | 3.3 | 1.37 | 93 | 91
13 | AGDHYCWEEWWFCWDSGT [482-A12 peptide-displaying phage (SEQ ID NO: 021)] | 3.5 | 1.37 | 98 | 79
14 | AGVIVCNLSMMYCLYPGT [499-C09 peptide-displaying phage (SEQ ID NO: 023)] | 3.2 | 1.33 | 91 | 70
15 | AGVLQCIGFEWFCDIWGT [423-C11 peptide-displaying phage (SEQ ID NO: 022)] | 3.4 | 1.4 | 132 | 75
16 | AQFSGLVMYGRTHEVQWTFGSM [94-G02 peptide-displaying phage (SEQ ID NO: 477)] | 3.5 | 1.3 | 108 | 76
17 | AQWNQWDEFMWFLNPPPIGLMW [151-B08 peptide-displaying phage (SEQ ID NO: 480)] | 3.3 | 1.23 | 102 | 368
18 | AQWGAVDNDWYDWEMEQIWMFE [527-E08 peptide-displaying phage (SEQ ID NO: 491)] | 3.2 | 1.23 | 98 | 95
19 | AQSDHDHAHWGVKHWPFRRYQ [93-B10 peptide-displaying phage (SEQ ID NO: 482)] | 3.1 | 1.2 | 0 | 0
20 | AQDNTADQMFNGFHVLAMYMV [117-E09 peptide-displaying phage (SEQ ID NO: 481)] | 3.3 | 1.37 | 109 | 102
21 | AGTVYCSWESSECWWVGT [352-E04 peptide-displaying phage (SEQ ID NO: 019)] | 3.9 | 1.37 | 88 | 74
22 | AQFMYEKEHYVMSISLPGLWFY [122-D07 peptide-displaying phage (SEQ ID NO: 486)] | 3 | 1.63 | 102 | 92
23 | AGYPECKDNYHWCEWKGT [457-A09 peptide-displaying phage (SEQ ID NO: 024)] | 14.5 | 1.3 | 27 | 67
24 | AQMWHRVHDPGYTFEVTWLWDN [166-H04 peptide-displaying phage (SEQ ID NO: 488)] | 3 | 1.27 | 77 | 85
25 | AQQWMFQIHQSMAWPYEWIDSY [524-D07 peptide-displaying phage (SEQ ID NO: 494)] | 3.9 | 1.23 | 105 | 104
26 | AQWNWDMGFMWTTDSAQVQPSM [96-D06 peptide-displaying phage (SEQ ID NO: 489)] | 3 | 1.37 | 154 | 151
27 | AQKTWFLEADLFQMFQEVTWQF [103-C04 peptide-displaying phage (SEQ ID NO: 490)] | 3 | 1.4 | 73 | 86

From patent publication US20120039802A1 (published 2012)
